Columns and labels:
VEGF 1-165 aa = molecular target: T1, VEGF 1-165 aa (UniProt P15692 27-191); test: direct bind ELISA (C-term VD)
T1 construct: Bought antigen coated on the ELISA plate

HGF-His tag = molecular target: T2, HGF-His tag (UniProt P14210 32-728); test: direct bind ELISA (N-term VD);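 note: ELISA screen of antibodies for binding to plate-immobilized target antigen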
T2 construct: Bought antigen coated on the ELISA plate; not shown: His tag
T2 sequence (P14210 32-728 limits assumed): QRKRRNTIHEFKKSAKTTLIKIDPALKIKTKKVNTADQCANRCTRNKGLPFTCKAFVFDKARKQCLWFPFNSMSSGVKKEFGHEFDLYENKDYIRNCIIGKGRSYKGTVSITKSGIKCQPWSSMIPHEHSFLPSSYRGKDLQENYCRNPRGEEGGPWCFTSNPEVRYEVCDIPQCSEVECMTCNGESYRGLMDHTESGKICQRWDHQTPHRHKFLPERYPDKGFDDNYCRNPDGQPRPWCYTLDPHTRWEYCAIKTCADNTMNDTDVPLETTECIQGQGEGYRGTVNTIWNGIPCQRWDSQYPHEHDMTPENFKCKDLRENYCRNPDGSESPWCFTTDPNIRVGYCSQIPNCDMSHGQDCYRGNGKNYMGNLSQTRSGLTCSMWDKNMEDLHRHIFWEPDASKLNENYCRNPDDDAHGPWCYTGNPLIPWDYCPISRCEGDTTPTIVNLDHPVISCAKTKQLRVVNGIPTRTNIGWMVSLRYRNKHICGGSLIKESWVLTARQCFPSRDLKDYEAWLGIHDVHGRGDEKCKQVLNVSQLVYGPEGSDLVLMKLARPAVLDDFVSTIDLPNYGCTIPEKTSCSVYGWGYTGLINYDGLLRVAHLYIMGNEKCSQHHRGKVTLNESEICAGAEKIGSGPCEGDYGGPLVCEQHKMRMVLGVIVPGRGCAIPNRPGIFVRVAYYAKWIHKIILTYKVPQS

T1 sequence (P15692 other isoform, or with tags, fused parts or gaps limits assumed): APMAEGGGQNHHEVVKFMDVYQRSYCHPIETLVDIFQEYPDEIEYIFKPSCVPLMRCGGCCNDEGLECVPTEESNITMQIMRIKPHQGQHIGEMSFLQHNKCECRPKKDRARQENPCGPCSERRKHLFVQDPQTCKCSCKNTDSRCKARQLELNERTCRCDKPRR

| Binder | EC50 (VEGF 1-165 aa) [nM] | EC50 (HGF-His tag) [nM] |
| --- | --- | --- |
| DVD655 (bispecific antibody, human IgG1, kappa, DVD-Ig; HC linker short, LC linker long; vectors V1/V2) heavy: not shown light: DIQMTQSPSSVSASVGDRVTITCRASQGISSWLAWYQQKPGKAPNLLIYEASSLQSGVPSRFGGSGSGTDFTLTISSLQPEDFATYYCQQANGFPWTFGQGTKVEIKRTVAAPSVFIFPPDIQMTQSPSSLSASVGDRVTITCRASQDVSTAVAWYQQKPGKAPKLLIYSASFLYSGVPSRFSGSGSGTDFTLTISSLQPEDFATYYCQQSYTTPPTFGQGTKVEIKRTVAAPSVFIFPPSDEQLKSGTASVVCLLNNFYPREAKVQWKVDNALQSGNSQESVTEQDSKDSTYSLSSTLTLSKADYEKHKVYACEVTHQGLSSPVTKSFNRGEC | 92.9 | 0.19 |
| DVD657 (bispecific antibody, human IgG1, kappa, DVD-Ig; N-term VD AB012 (HGF), C-term VD AB071 (VEGF); HC linker short, LC linker long; vectors V1/V2) heavy: not shown light: DIQMTQSPSSVSASVGDRVTITCRASQGISSWLAWYQQKPGKAPNLLIYEASSLQSGVPSRFGGSGSGTDFTLTISSLQPEDFATYYCQQANGFPWTFGQGTKVEIKRTVAAPSVFIFPPDIQMTQSPSSLSASVGDRVTITCRASQVIRRSLAWYQQKPGKAPKLLIYAASNLASGVPSRFSGSGSGTDFTLTISSLQPEDFATYYCQQSNTSPLTFGQGTKVEIKRTVAAPSVFIFPPSDEQLKSGTASVVCLLNNFYPREAKVQWKVDNALQSGNSQESVTEQDSKDSTYSLSSTLTLSKADYEKHKVYACEVTHQGLSSPVTKSFNRGEC | 358 | 0.31 |
| DVD679 (bispecific antibody, human IgG1, kappa, DVD-Ig; HC linker short, LC linker long; vectors V1/V2) heavy: not shown light: DIQMTQSPSSLSASVGDRVTITCKASENVVSYVSWYQQKPGKAPKLLIYGASNRNTGVPSRFSGSGSGTDFTLTISSLQPEDFATYYCGQSYNYPYTFGQGTKLEIKRTVAAPSVFIFPPDIQMTQSPSSLSASVGDRVTITCRASQDVSTAVAWYQQKPGKAPKLLIYSASFLYSGVPSRFSGSGSGTDFTLTISSLQPEDFATYYCQQSYTTPPTFGQGTKVEIKRTVAAPSVFIFPPSDEQLKSGTASVVCLLNNFYPREAKVQWKVDNALQSGNSQESVTEQDSKDSTYSLSSTLTLSKADYEKHKVYACEVTHQGLSSPVTKSFNRGEC | 92.4 | 0.32 |
| DVD649 (bispecific antibody, human IgG1, kappa, DVD-Ig; HC linker long, LC linker short; vectors V1/V2) heavy: not shown light: DIQMTQSPSSVSASVGDRVTITCRASQGISSWLAWYQQKPGKAPNLLIYEASSLQSGVPSRFGGSGSGTDFTLTISSLQPEDFATYYCQQANGFPWTFGQGTKVEIKRTVAAPDIQMTQSPSSLSASVGDRVTITCRASQDVSTAVAWYQQKPGKAPKLLIYSASFLYSGVPSRFSGSGSGTDFTLTISSLQPEDFATYYCQQSYTTPPTFGQGTKVEIKRTVAAPSVFIFPPSDEQLKSGTASVVCLLNNFYPREAKVQWKVDNALQSGNSQESVTEQDSKDSTYSLSSTLTLSKADYEKHKVYACEVTHQGLSSPVTKSFNRGEC | 186 | 0.15 |
| DVD669 (bispecific antibody, human IgG1, kappa, DVD-Ig; N-term VD AB079 (HGF), C-term VD AB071 (VEGF); HC linker long, LC linker long; vectors V1/V2) heavy: not shown light: DIQMTQSPSSLSASVGDRVTITCKASENVVSYVSWYQQKPGKAPKLLIYGASNRNTGVPSRFSGSGSGTDFTLTISSLQPEDFATYYCGQSYNYPYTFGQGTKLEIKRTVAAPSVFIFPPDIQMTQSPSSLSASVGDRVTITCRASQVIRRSLAWYQQKPGKAPKLLIYAASNLASGVPSRFSGSGSGTDFTLTISSLQPEDFATYYCQQSNTSPLTFGQGTKVEIKRTVAAPSVFIFPPSDEQLKSGTASVVCLLNNFYPREAKVQWKVDNALQSGNSQESVTEQDSKDSTYSLSSTLTLSKADYEKHKVYACEVTHQGLSSPVTKSFNRGEC | 1660 | 0.29 |
| DVD673 (bispecific antibody, human IgG1, kappa, DVD-Ig; HC linker long, LC linker short; vectors V1/V2) heavy: not shown light: DIQMTQSPSSLSASVGDRVTITCKASENVVSYVSWYQQKPGKAPKLLIYGASNRNTGVPSRFSGSGSGTDFTLTISSLQPEDFATYYCGQSYNYPYTFGQGTKLEIKRTVAAPDIQMTQSPSSLSASVGDRVTITCRASQDVSTAVAWYQQKPGKAPKLLIYSASFLYSGVPSRFSGSGSGTDFTLTISSLQPEDFATYYCQQSYTTPPTFGQGTKVEIKRTVAAPSVFIFPPSDEQLKSGTASVVCLLNNFYPREAKVQWKVDNALQSGNSQESVTEQDSKDSTYSLSSTLTLSKADYEKHKVYACEVTHQGLSSPVTKSFNRGEC | 65.3 | 0.4 |

Results, then the binder that gave them:

| EC50 (VEGF 1-165 aa) [nM] | EC50 (HGF-His tag) [nM] | Binder |
| --- | --- | --- |
| 5770 | 0.48 | DVD675 (bispecific antibody, human IgG1, kappa, DVD-Ig; N-term VD AB079 (HGF), C-term VD AB071 (VEGF); HC linker long, LC linker short; vectors V1/V2) heavy: not shown light: DIQMTQSPSSLSASVGDRVTITCKASENVVSYVSWYQQKPGKAPKLLIYGASNRNTGVPSRFSGSGSGTDFTLTISSLQPEDFATYYCGQSYNYPYTFGQGTKLEIKRTVAAPDIQMTQSPSSLSASVGDRVTITCRASQVIRRSLAWYQQKPGKAPKLLIYAASNLASGVPSRFSGSGSGTDFTLTISSLQPEDFATYYCQQSNTSPLTFGQGTKVEIKRTVAAPSVFIFPPSDEQLKSGTASVVCLLNNFYPREAKVQWKVDNALQSGNSQESVTEQDSKDSTYSLSSTLTLSKADYEKHKVYACEVTHQGLSSPVTKSFNRGEC |
| 341 | 0.11 | DVD651 (bispecific antibody, human IgG1, kappa, DVD-Ig; N-term VD AB012 (HGF), C-term VD AB071 (VEGF); HC linker long, LC linker short; vectors V1/V2) heavy: not shown light: DIQMTQSPSSVSASVGDRVTITCRASQGISSWLAWYQQKPGKAPNLLIYEASSLQSGVPSRFGGSGSGTDFTLTISSLQPEDFATYYCQQANGFPWTFGQGTKVEIKRTVAAPDIQMTQSPSSLSASVGDRVTITCRASQVIRRSLAWYQQKPGKAPKLLIYAASNLASGVPSRFSGSGSGTDFTLTISSLQPEDFATYYCQQSNTSPLTFGQGTKVEIKRTVAAPSVFIFPPSDEQLKSGTASVVCLLNNFYPREAKVQWKVDNALQSGNSQESVTEQDSKDSTYSLSSTLTLSKADYEKHKVYACEVTHQGLSSPVTKSFNRGEC |
| 51.3 | 0.33 | DVD667 (bispecific antibody, human IgG1, kappa, DVD-Ig; HC linker long, LC linker long; vectors V1/V2) heavy: not shown light: DIQMTQSPSSLSASVGDRVTITCKASENVVSYVSWYQQKPGKAPKLLIYGASNRNTGVPSRFSGSGSGTDFTLTISSLQPEDFATYYCGQSYNYPYTFGQGTKLEIKRTVAAPSVFIFPPDIQMTQSPSSLSASVGDRVTITCRASQDVSTAVAWYQQKPGKAPKLLIYSASFLYSGVPSRFSGSGSGTDFTLTISSLQPEDFATYYCQQSYTTPPTFGQGTKVEIKRTVAAPSVFIFPPSDEQLKSGTASVVCLLNNFYPREAKVQWKVDNALQSGNSQESVTEQDSKDSTYSLSSTLTLSKADYEKHKVYACEVTHQGLSSPVTKSFNRGEC |
| 2160 | 0.27 | DVD681 (bispecific antibody, human IgG1, kappa, DVD-Ig; N-term VD AB079 (HGF), C-term VD AB071 (VEGF); HC linker short, LC linker long; vectors V1/V2) heavy: not shown light: DIQMTQSPSSLSASVGDRVTITCKASENVVSYVSWYQQKPGKAPKLLIYGASNRNTGVPSRFSGSGSGTDFTLTISSLQPEDFATYYCGQSYNYPYTFGQGTKLEIKRTVAAPSVFIFPPDIQMTQSPSSLSASVGDRVTITCRASQVIRRSLAWYQQKPGKAPKLLIYAASNLASGVPSRFSGSGSGTDFTLTISSLQPEDFATYYCQQSNTSPLTFGQGTKVEIKRTVAAPSVFIFPPSDEQLKSGTASVVCLLNNFYPREAKVQWKVDNALQSGNSQESVTEQDSKDSTYSLSSTLTLSKADYEKHKVYACEVTHQGLSSPVTKSFNRGEC |
| 566 | 0.7 | DVD661 (bispecific antibody, human IgG1, kappa, DVD-Ig; HC linker short, LC linker short; vectors V1/V2) heavy: not shown light: DIQMTQSPSSLSASVGDRVTITCKASENVVSYVSWYQQKPGKAPKLLIYGASNRNTGVPSRFSGSGSGTDFTLTISSLQPEDFATYYCGQSYNYPYTFGQGTKLEIKRTVAAPDIQMTQSPSSLSASVGDRVTITCRASQDVSTAVAWYQQKPGKAPKLLIYSASFLYSGVPSRFSGSGSGTDFTLTISSLQPEDFATYYCQQSYTTPPTFGQGTKVEIKRTVAAPSVFIFPPSDEQLKSGTASVVCLLNNFYPREAKVQWKVDNALQSGNSQESVTEQDSKDSTYSLSSTLTLSKADYEKHKVYACEVTHQGLSSPVTKSFNRGEC |
